Substrate: O=S(O)(O)=S
Assay: purified protein
Format: biochemical, Pieris rapae
Conditions: 50 mM KCN, Tris-HCl pH 8.5, 30 °C

B1: PrTST2 (Pieris rapae) (protein)
chain: MGNSNSNSTMVDPVRFVSYEDMLKVIHEPEKVIIDVRNPDEIESTGKIPSSINIPLNTVSDTLASMPDDEFLKQYQRPKPSASDELIFYCKSGRRSQEALDKALKLGFSNSKSYLGSWEDWSSKQK
notes: active-site Cys-90
  Km: 840 ± 270 µM
  Vmax: 14.2 µmol/min/mg

Source: PMC6050342, “Molecular identification and characterization of rhodaneses from the insect herbivore Pieris rapae” (Scientific Reports, 2018)
